Assay results taken from the nanobody polyreactivity screen of Harvey et al. (2022).

Assay: yeast display, Sf9 membrane polyspecificity reagent, FACS + sequencing; frameworks hold sequencing errors
Procedure, shortened: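 Nanobodies from a synthetic yeast display library (Saccharomyces cerevisiae BJ5465), induced 36–48 hours with galactose, were stained 1 hour at 4 °C with 10% biotinylated, detergent-solubilized Sf9 membrane reagent, enriched on streptavidin microbeads, then FACS-sorted. Anti-HA (expression) and streptavidin (reagent binding) fluorescence set low and high (top ~1%) gates. Polyreactivity labels come from the gate of origin. Genes were colony-PCR amplified, MiSeq 2 × 250 sequenced and filtered by CDR length.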

Sequence | polyreactivity (PSR sort gate)
QVQLVESGGGLVQAGGSLRLSCAASGRTSVIYAMGWYRKAPGKERELVASIRRGGSTSYADSVKGRFTISRDNAKNTVYLQMNSLKPEDTAVYYCAARKRSVYGTEYDYWGQGTQVTVSS | high polyreactivity
QVQLVESGGGLVQAGGSLRLSCAASGYTAYTYTMGWYRQAPGKVREWVAAMSRRSDSTYADSVKGRFTISRDNAKNTVYLQMNSLKPEDTADYYCAAVRVSYRSLSKSYYWGQGTQVTVSS | high polyreactivity
QVQLVESGGGLVQAGGSLRLSCAASGRTFGYYAMGWYRQAPGKEREFVAAIWGGTSTYYADSVKGRFTISRDNAKNTVYLQMNSLKPEDTAVYYCAAEGWLYPTGYSTLHYEYDYWGQGTQVTVSS | low polyreactivity
QVQLVESGGGLVQAGGSLRLSCAASGRTFWVYAMGWYRQAPGKERELVAAINTGGSTTYADSVKGRFTISRDNAKNTVYLQMNSLKPEDTAVYYCAADTWWYGKYDYWGQGTQVTVSS | low polyreactivity
QVQLEESGGGLVQAGGSLRLSCAASGSILRRYAMGWYRQAPGKEREFVAAMSYSGSRTYYADSVKGRFTISRDNAKYTVYLQMYSLKPEDTAVYYCAADSYGSRYEYWGLGTQVTVSS | high polyreactivity
QVQLVESGGGLVQAGGSLRLSCAAMGWYRQAPGKERELVATITWSGGSTYYADSVKGRFTISRDNAKNTVYLQMNSLKPEDTAVYYCNARATLLSPANTIRGYDYWGQGTQVTVSS | low polyreactivity
QVQLVESWGGLVQAGGSLRLRCAASGSTSLGYAMGWYRQAPGKERELVASISWTGGGKYYADSVKGRFTISRDNAKNTVYLQMNSLKPEDTAVYYCAADLTGYHPYIYGYWGQVTQVTVSS | low polyreactivity
QVQLEETRGGLVQAGGSLRLSCAASGLFFGTYAMGWYRQPPGKEWELVAGITSSGGTTYYADSVKGRFTISRDNAKNTVYLQMNSLKPEDTAVYYCNARAVQSRYGYYYWGQGTQVTVSS | low polyreactivity
QVQLVESGGGLVQAGGSLRLSCAASGRTLRRYAMGGYRQAPGKERELVAAISSGVSTNYADSVKGRFTISRDNAKNTVYLQMNSLKPEDTAVYYCNKKRPVYALSIVPYYSWGQGTQVTVSS | high polyreactivity
QVQLVESGGGLVQAGGSLRLSCAASGSTFRNNGMGWYRQAPGKERELVAAITKSGGSTYYADSVKGRFTISRDNAKNTVYLQMNSLKPEDTAVYYCAARFWYNTPRVGWRRYNYWGQGTQVTVSS | high polyreactivity
QVQLVESGGGLVQAGGSLRLSCAASGSIFSTNGMGWYRQAPGKERELVAAISTGGRTYYADSVKGRFTISRDNAKNTVYLQMNSLKPEDTAVYYCAKRFGYRSTEILDYWGQGTQVTVSS | low polyreactivity
QVQLVESGGGLVQAGGSLRLSCAASGLTFGYYAMGWYRQAPGKERELVAAISVSGSTYYADSVKGRFTISRDNAKNTVYLQMNSLKPEDTAVYYCNRAIGYRKELDYWGQGTQVTVSS | high polyreactivity
QVQLVESGGGLVQAGGSLRLSCAASGFTFWKYAMGWYRQAPGKERELVAAISWSGGNTYYADSVKGRFTISRDNAKNTVYLQMNSLKPEDTAVYYCAAVYTPQNQFRYKYYYWGQGTQVTVSS | high polyreactivity
QVQLVESGGGLVQAGGSLRLSCAASGLTFYDYAKGWYRQAPGKELELVADIDFNGGSTSYADSVKGRFTISRDNAKNTVYLQMNSLKPEDTAVYYCAVDFIYWFHSRSSYIYDYWGQGSQVTVSS | low polyreactivity
QVQLVESGGGLVQAGGSLRLSCAASGYIFYAYAMGWSRQAPGKERELVAAISSGGGRTYYADSVKGRFTISRDNAKNTVYLQMNSLKPEDTAVYYCAARRRDRGEYYYWGQGTQVTVSS | high polyreactivity
QVQLVESGGGLVQAGGSLRLSCAASGFTFSVYVMGWYRQAPGKERELVAAISSGGDTTYADSVKGRFTISRDNAKNTVYLQMNSLKPEDTAVYYCAAYRVILYYLYDYWGQGTQVTVSS | low polyreactivity
QVQLVESGGGLVQAGGSLRLSCAASGRTFQGYVMGWYRQAPRKERELVAAISRGTSTYYADSVKGRFTISRDNAKYTVYLQMNSLKPEDTAVYYCAADGERRHYWGQGTQVTVSS | low polyreactivity
QVQLVDSGGGLVQAGGSLRLSCAASGFNFVFNAMGWYRQAPGKERELVAAINGGDITNYADSVKGRFTISRDNAKNTVYLQMNSLKPEDTAVYYCAADGEYSLWTGYDYDYWGQGTQVTVSS | low polyreactivity
QVQLVESGGGLVQAGGSLRLSCAASGLTFGDNAMGWYRQAPGKERELVAAITTSGPSTYYADSVKGRFTISRDNAKNTVYLQMNSLKPEDTAVYYCAADGLFYWVQYGYWGQGTQVTVSS | low polyreactivity
QVQLEESGGGLVQAGGILRLSCAASGFIIRRNALGLYRKAAGQERELVATIRASGGRTYYADSVKGRFTISRDNAKNTVYLQMNSVKPEDTAVYYCAAFRWYKPHDYWGQGTQVTVSS | high polyreactivity
QVQLVESGGGLVQAGGSLRLSCAASGSILLDYAMGWYRQAPGKERELVAVISRRGTSTYYADSVKGRFTISRDNAKNTVYLQMNSLKPEDTAVYYCATSTWSFYRRYDYWGQGTQVTVSS | high polyreactivity

Sequence | polyreactivity (PSR sort gate)
QVQLVESGGGLVQAGGSLRLSCAASGRIFTHNAMGGYRQAPGKERELVAAITIGGRTNYADSVKGRFTISRDNAKYTVYLQMNSLKPEDTAVYYCDRRYGTWNAYDYWGQGTLVTVSS | low polyreactivity
QVQLVESGGGLVQAGGSLRLSCAASGLTFVKNVMGWYRQAPGKERELVAAISRRGGSTYYADSVKGRFTISRDNAKNTVYLQMNSLKPEDTAVYSCNAVLNHLSYIYPAVGYWGQGTQVTVSS | high polyreactivity
QVQLVESAGGLVQAGGSLRLSCAASGYTFPFYTMGWYRQAPGKERELVAAITDTGGGTYYADSVKGRFTISRDNAKNTVYLQMNSLNPEDTAVYYCAKPTSYRGYYSWGQGTQVTVSS | high polyreactivity
QVQLVESGGGLVQAGGSLRLSCAASGFTFQGYVMGWYRQAPGKERELVARITNDGSTTYADSVKGRFTISRDNAKNTVYLQMNSLKPEDTAVYYCDRPYRFWRYYGMYYWGQGTQVTVSS | high polyreactivity
QVQLVESGGGLVQAGGSLRLSCASSGSTFWFYAMGWYRQAPGKERELVAAITRSAGSTYYADSVKGRFTISRDNAKNTVYLQMNSLKPEGTAVYYCAAQRESLYGGFDYWGQGTQVTVSS | low polyreactivity
QVQLVESVGGLVQAGGSLRLSCAASGIFRQNAMGWYRQAPGKERELVAGISQSGGSTYYADSVKGRFTISRDNAKNTVYLQMNSLKPEDTAVYYCAVVSIWGYDYWGQGTQVTVSS | low polyreactivity
QVQLVESGGGLVQAGGSLRLSCAASGRIFYYYVMGWYRQAPGKERELVAVIDWSGGSTYYADSVKGRFTISRDNAKNTVYLQMNSLKPEDTAVYYCAKVWLNFSLAYEDYDYWGQGTQVTVSS | low polyreactivity
QVQLVESGGGLDQAGGSLRLSCAASGSIFSTYAMGWYRQAPGKERELVAAISRNGGSTSYADSVKGRFTISRDNAKNTVYLQMNILKPEDTAVYYCNAGVYWPGEFDYWGQGTQVTVSS | high polyreactivity
QVQLVESGGGLVQAGGSLRLRCAASGFIYIRNAMGWYRQAPGKERELVAAITRSGGRTYYADSVKGRFTISRDNAKNTVYLQMNSLIPEDTAVYYCASDAEAAWGQGTQVTVSS | high polyreactivity
QVQLVESGGGLVQAGGSLRLSCAASGSIFSGNTMGWYRQAPGKERELVAAISKSGGSTYYADSVKGRFTISRDNAKNTVYLQINSLKPEDTAVYYCAVRIRSRVANPGYRWGFNYWGQGTQVTVSS | high polyreactivity
QVQLVESGGGLVQAGGSLRLSCAASGSTLGINAMGWYRQAPGKERELVAAITWNGGSTYYADSVKGRFTISRDNAKNTVYLQMNSLKPEDTAVYYCAARTYSSRYYRTREGFDYYYWGQGTQVTVSS | high polyreactivity
QVQLVESGGGLVQAGGSLRLSCAASGSILWLNAMGWYRQAPGKERELVADITRGGSTYYADSVKGRFTISRDNAKNTVYLQMNSLTPEDTAVYYCAADAYTCQIPYYYFEHYYWGQGTQVTVSS | high polyreactivity
QVQLVESGGGLVQAGGRLRLSCAASGSTLPANAMGWYRQAPGKERELVSAITITTDGSTYYADSVKGRFTISRDNAKNTVYLQMNSLKPEDTAVYYCAVDRYRYHNRKMGYWGQGTEVTVSS | low polyreactivity
QVQLVESGGGLVQAGGSLRFSCAASGRTFQYYAMGWSRQAPGKERELVAAISQDGGSTYYADSVKGRFTISRDNAKNTVYLQMNSLKPEDTAVYYCAAEVWRSYGYWGQGTQVTVSS | low polyreactivity
QVQLVESGGGLVQAGASLRLSCAASVIIFKIYAMGWYRQAPGKERELVAAITRSGTRTYYADSVKGRFTISRDNAKNTVYLQMNSLKPEDTAVYYCNAYTTLAYDLDYWGQGTQVTVSS | high polyreactivity
QVQLVESGGGFVQAGGSLRLSCAASGRTFIYNAMGWYRQAPGKERELVARISSGGGNTYYADSVKGRFTISRDNAKNPVYLQINSLKPEDTAVYYGAKGWRPSFSYYWGQGTQVTVSS | high polyreactivity
QVQLVESGGGLVQAGGSLRLSSAASARIFFKNTKGWYRPAPGKERELVAAITSSGSSTYYADSVKGRFTISRDNAKKTVYLQMNSLKPEDTAVYYCNALTWDHSRTGVDYWGQGTQVTVSS | low polyreactivity
QVQLVESGGGLVQAGGSLRLSCAASGRIFEAYAMGWYRQAPGKERELVAAISGSGGSTYYADSVKGRFTISRDNAKNTVYLQMNSLKPEDTAVYYCAADDYYRVYWGQGTQVTVSS | high polyreactivity
QVHRVESGGGLVQAGGSLRLSCDASGNIFYDYAMGWYRQGPGKERELVAAIDLSDGSTYYSDSVKGRFTISRDNAKNTVYFQMNSLKPDDTAVYYCAADIIAAWTSDYYYWGQGSQVTVSS | high polyreactivity
QVQLVESVGGLVQAGGSLRLTCAASVSIIRYNAMGWYRQAPGKERELVAAITKGAGSTYYADSVKGRFTISRDNAKNTVYLQMNSLKPEDTAVYYCAAAGGTSRRTIYTAFYYWGQGTQVTVSS | high polyreactivity
